{"source": "patent US20250084163A1", "about": "(published 2025)", "binders": {"B1": {"name": "RO6D8-jlv1011 (antibody, V domains shown)", "VH": "QVQLVQSGAEVKKPGASVKVSCKASGYTFTSKYYHWVRQAPGQGLEWMGIINPTSGSTSYAQKFQGRVTMTRDTSTSTVYMELSSLRSEDTAVYYCARDSSRYSGWYFDLWGQGTTVTVSS", "VL": "AIQLTQSPSSLSASVGDRVTITCRASQGVSTEIAWYQQKPGKAPKLLIYAASSLQSGVPSRFSGSGSGTDFTLTISSLQPEDFATYYCQQYYGYPIAFGQGTRLEIK"}, "B2": {"name": "RO6D8wt (antibody, V domains shown)", "VH": "QVQLVQSGAEVKKPGASVKVSCKASGYTFTNYYMHWVRQAPGQGLEWMGIINPSGGSTSYAQKFQGRVTMTRDTSTSTVYMELSSLRSEDTAVYYCARDSSSWYSGWYFDLWGQGTTVTVSS", "VL": "B1 VL with L4M, G28D, S30R, T31A, E32H, I33L, Y91F, Y92N, G93S, A97T"}, "B3": {"name": "RO6D8-011 (antibody, V domains shown)", "VH": "B2 VH with S54T, G55S, S57R", "VL": "B1 VL with L4M, V29I, S30R, E32D, I33L"}, "B4": {"name": "RO6D8-s10 (antibody, V domains shown)", "VH": "B2 VH with D99S, S101R, W103S, S105Y, G106L, Y108V, F109L", "VL": "B1 VL with L4M, Y91F, Y92N, G93S, A97T"}}, "assay_in_all_cases": "SPR", "key": {"[1]": {"molecular_target": "T1, Recombinant truncated human his-tag ROR1 extracellular domain protein (UniProt Q01973 30-403)", "T1 sequence (Q01973 other isoform, or with tags, fused parts or gaps)": "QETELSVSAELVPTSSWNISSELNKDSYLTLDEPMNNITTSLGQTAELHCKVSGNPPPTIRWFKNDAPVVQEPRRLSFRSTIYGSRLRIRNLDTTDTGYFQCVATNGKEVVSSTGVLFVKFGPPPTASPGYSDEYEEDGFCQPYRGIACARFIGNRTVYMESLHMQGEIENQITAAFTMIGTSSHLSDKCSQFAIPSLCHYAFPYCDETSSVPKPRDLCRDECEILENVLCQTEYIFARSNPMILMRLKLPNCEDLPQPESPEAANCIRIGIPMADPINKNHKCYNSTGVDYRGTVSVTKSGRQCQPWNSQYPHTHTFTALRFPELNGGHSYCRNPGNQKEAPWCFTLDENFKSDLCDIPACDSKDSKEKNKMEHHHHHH"}, "[2]": {"molecular_target": "T1, Recombinant truncated human his-tag …", "remark": "listed apart in the source"}, "[3]": {"molecular_target": "T1, Recombinant truncated human his-tag …", "remark": "listed apart in the source"}}, "note": "Where a chain is given by its changes, count along the chain named. Like-named read-outs stand apart in the source and are kept apart here."}
{"binder": "B1", "values": [{"measurement": "Kd", "setting": "[1]", "result": 0.796, "unit": "nM"}, {"measurement": "Kd", "setting": "[2]", "result": 0.796, "unit": "nM"}]}
{"binder": "B2", "values": [{"measurement": "Kd", "setting": "[1]", "result": 118, "unit": "nM"}, {"measurement": "Kd", "setting": "[3]", "result": 118, "unit": "nM"}]}
{"binder": "B3", "values": [{"measurement": "Kd", "setting": "[1]", "result": 2.48, "unit": "nM"}, {"measurement": "Kd", "setting": "[2]", "result": 2.48, "unit": "nM"}]}
{"binder": "B4", "values": [{"measurement": "Kd", "setting": "[1]", "result": 2.46, "unit": "nM"}, {"measurement": "Kd", "setting": "[3]", "result": 2.46, "unit": "nM"}]}
